Reference: the Immune Epitope Database (IEDB)

How the values were obtained:
[1] = target: HLA-B*58:01; test: IEDB peptide-MHC binding, purified MHC/competitive/radioactivity; filed as Kd, often an IC50 or EC50 that approximates it; ≥ and ≤ were set here for values at or beyond the usual limits of such assays; settings: source organism: Dengue virus 1 Brazil/97-11/1997
[2] = target: HLA-B*51:01; test: IEDB peptide-MHC binding, purified MHC/competitive/fluorescence; filed as Kd, often an IC50 or EC50 that approximates it; ≥ and ≤ were set here for values at or beyond the usual limits of such assays; settings: source organism: Zaire ebolavirus
[3] = target: HLA-B*15:17; test: as above; settings: source organism: Zaire ebolavirus
[4] = target: HLA-A*69:01; test: as above; settings: source organism: Zaire ebolavirus
[5] = target: HLA-B*27:03; test: as above; settings: source organism: Zaire ebolavirus
[6] = target: HLA-A*02:01; test: as above; settings: source organism: Zaire ebolavirus
[7] = target: HLA-A*26:01; test: as above; settings: source organism: Zaire ebolavirus
[8] = target: HLA-B*40:01; test: IEDB peptide-MHC binding, purified MHC/direct/fluorescence; filed as Kd, often an IC50 or EC50 that approximates it; ≥ and ≤ were set here for values at or beyond the usual limits of such assays; settings: source organism: Ebola virus - Gabon (1994-1997)
[9] = target: HLA-A*02:03; test: as above; settings: source organism: Zaire ebolavirus
[10] = target: HLA-B*39:01; test: as above; settings: source organism: Ebola virus - Gabon (1994-1997)
[11] = target: HLA-A*01:01; test: as above; settings: source organism: Ebola virus - Gabon (1994-1997)
[12] = target: HLA-A*02:12; test: as above; settings: source organism: Zaire ebolavirus
[13] = target: HLA-B*58:01; test: as above; settings: source organism: Ebola virus - Gabon (1994-1997)
[14] = target: HLA-B*15:01; test: as above; settings: source organism: Ebola virus - Gabon (1994-1997)
[15] = target: HLA-A*03:01; test: as above; settings: source organism: Ebola virus - Gabon (1994-1997)
[16] = target: HLA-A*11:01; test: as above; settings: source organism: Ebola virus - Gabon (1994-1997)
[17] = target: HLA-B*57:01; test: as above; settings: source organism: Ebola virus - Gabon (1994-1997)
[18] = target: HLA-A*31:01; test: as above; settings: source organism: Ebola virus - Gabon (1994-1997)
[19] = target: HLA-B*07:02; test: as above; settings: source organism: Ebola virus - Gabon (1994-1997)
[20] = target: HLA-B*48:01; test: as above; settings: source organism: Ebola virus - Gabon (1994-1997)
[21] = target: HLA-A*02:11; test: as above; settings: source organism: Zaire ebolavirus
[22] = target: HLA-A*02:19; test: as above; settings: source organism: Zaire ebolavirus
[23] = target: HLA-A*02:16; test: as above; settings: source organism: Zaire ebolavirus
[24] = target: HLA-B*46:01; test: as above; settings: source organism: Ebola virus - Gabon (1994-1997)
[25] = target: HLA-B*27:05; test: as above; settings: source organism: Ebola virus - Gabon (1994-1997)
[26] = target: HLA-B*44:02; test: as above; settings: source organism: Ebola virus - Gabon (1994-1997)
[27] = target: HLA-B*18:01; test: as above; settings: source organism: Ebola virus - Gabon (1994-1997)

Sequence WMASVEPHW has a Kd [1] of 0.0133 µM.

YFTFDLTAL showed a Kd [2] of no less than 20 µM, a Kd [3] of no less than 20 µM and a Kd [4] of no less than 20 µM. It also gave a Kd [5] of no less than 20 µM, a Kd [6] of no less than 20 µM and a Kd [7] of no less than 20 µM. The Kd [8] was no less than 20 µM, the Kd [9] was no less than 20 µM and the Kd [10] was no less than 20 µM. The Kd [11] was no less than 20 µM, the Kd [12] was no less than 20 µM and the Kd [13] was no less than 20 µM. It also gave a Kd [14] of no less than 20 µM, a Kd [15] of no less than 20 µM and a Kd [16] of no less than 20 µM. For the same sequence, the Kd [17] was no less than 20 µM, the Kd [18] was no less than 20 µM and the Kd [19] was no less than 20 µM. For the same sequence, the Kd [20] was no less than 20 µM, the Kd [21] was no less than 20 µM and the Kd [22] was no less than 20 µM. For the same sequence, the Kd [23] was no less than 20 µM, the Kd [24] was no less than 20 µM and the Kd [25] was no less than 20 µM. It also gave a Kd [26] of no less than 20 µM and a Kd [27] of no less than 20 µM.
